Measurements from patent US20210139545A1 (IBA, published 2021).

Assays:
[1] = molecular target: T1, cytochrome b562 with C-terminally fused Strep-tagII (E. coli); test: affinity chromatography, capture from dilute solution (500 µg applied, 1 mg mutein)
T1 construct: also called Cytb562-StrepII; Cytb562-StrepIII

[2] = molecular target: T2, E. coli alkaline phosphatase Strep-tag®II fusion protein (E. coli, UniProt P00634 22-471 = phosphatase); test: ELISA, mutein coated, BAP-StrepII titrated
T2 construct: mature; also called BAP-StrepII; BAP-StrepIII

[3] = molecular target: T1, cytochrome b562 with C-terminally fused …; test: affinity chromatography, overloaded Sepharose column, washed, biotin elution
[4] = molecular target: T2, E. coli alkaline phosphatase …; test: ELISA, second experiment, mutein coated, BAP-StrepII titrated

Row | Binder | yield of Cytb562-StrepII applied [1] [%] | (Δ(A405-A595)/Δt)max [2] [mOD] | KD(mutein“1”)/KDmutein [2] | Kd [2] [nM] | Retained Cytb562-StrepII [3] [µg] | Retained Cytb562-StrepII per immobilized mutein [3] [µg/µg] | Retained Cytb562-StrepII per immobilized mutein relative to mutein “1” [3] [%] | (Δ(A405-A595)/Δt)max [4] [mOD] | Kd [4] [nM]
1 | mutein“1”-m41 (designed binder, Library 3 clone on mutein “1”) EAGITGTWYNQLGSTFIVTAGADGALTGTYVTARGNAESRYVLTGRYDSAPATDGSGTALGWTVAWKNNYRNAHSATTWSGQYVGGAEARINTQWLLTSGTTEAWYSTLVGHDTFTKVKPSAAS | 47 | 613 | 8.5 | 13 | 289 | 0.2 | 155 |  | 
2 | mutein“1”-m302 (designed binder, Library 7 clone on mutein “1”, 118 and 119 deleted) EAGITGTWYNQLGSTFIVTAGADGALTGTYVTARGNAESRYVLTGRYDSAPATDGSGTALGWTVAWKNNYRNAHSATTWSGQYVGGAEARINTQWLLTSGTTEHWYSTLVGHDTFTKVKPSAAS | 63 | 726 | 22 | 5 | 350 | 0.28 | 221 |  | 
3 | mutein“1”-m301 (designed binder, Library 7 clone on mutein “1”, 118 and 119 deleted) EAGITGTWYNQLGSTFIVTAGADGALTGTYVTARGNAESRYVLTGRYDSAPATDGSGTALGWTVAWKNNYRNAHSATTWSGQYVGGAEARINTQWLLTSGTTEHWMSTLVGHDTFTKVKPSAAS | 57 | 725 | 11 | 10 | 400 | 0.28 | 225 |  | 
4 | mutein“1”-m212 (designed binder, Library 6 clone on mutein “1”, 118 and 119 deleted) EAGITGTWYNQLGSTFIVTAGADGALTGTYVTARGNAESRYVLTGRYDSAPATDGSGTALGWTVAWKNNYRNAHSATTWSGQYVGGAEARINTQWLLTSGTTEHWLSTLVGHDTFTKVKPSAAS | 47 | 607 | 6.5 | 17 | 390 | 0.25 | 197 |  | 
5 | mutein“1”-m207 (designed binder, Library 6 clone on mutein “1”, 118 and 119 deleted) EAGITGTWYNQLGSTFIVTAGADGALTGTYVTARGNAESRYVLTGRYDSAPATDGSGTALGWTVAWKNNYRNAHSATTWSGQYVGGAEARINTQWLLTSGTTETWLSTLVGHDTFTKVKPSAAS | 55 | 493 | 4.1 | 27 | 358 | 0.29 | 229 |  | 
6 | mutein m402 (designed binder, Library 1 clone) EAGITGTWYNQLGSTFIVTAGADGALTGTYACARGNAECRYVLTGRYDSAPATDGSGTALGWTVAWKNNYRNAHSATTWSGQYVGGAEARINTQWLLTSGTTEANAWKSTLVGHDTFTKVKPSAAS | 31 |  |  | 92 | 111 | 0.14 | 111 |  | 
7 | mutein“1”-m23 (designed binder, Library 3 clone on mutein “1”) EAGITGTWYNQLGSTFIVTAGADGALTGTYVTARGNAESRYVLTGRYDSAPATDGSGTALGWTVAWKNNYRNAHSATTWSGQYVGGAEARINTQWLLTSGTTEYNAYASTLVGHDTFTKVKPSAAS | 60 | 968 | 9.2 | 12 | 479 | 0.31 | 245 | 644 | 13
8 | mutein“1”-m101 (designed binder, Library 5 clone on mutein “1”) EAGITGTWYNQLGSTFIVTAGADGALTGTYVTARGNAESRYVLTGRYDSAPATDGSGTALGWTVAWKNNYRNAHSATTWSGQYVGGAEARINTQWLLTSGTTEYNAFLSTLVGHDTFTKVKPSAAS |  | 589 | 7.9 | 14 |  |  |  |  | 
9 | mutein“1”-m111 (designed binder, Library 5 clone on mutein “1”) EAGITGTWYNQLGSTFIVTAGADGALTGTYVTARGNAESRYVLTGRYDSAPATDGSGTALGWTVAWKNNYRNAHSATTWSGQYVGGAEARINTQWLLTSGTTEYNALWSTLVGHDTFTKVKPSAAS | 67 | 492 | 8.5 | 13 | 318 | 0.31 | 246 |  | 
10 | mutein“1”-m4 (designed binder, Library 3 clone on mutein “1”) EAGITGTWYNQLGSTFIVTAGADGALTGTYVTARGNAESRYVLTGRYDSAPATDGSGTALGWTVAWKNNYRNAHSATTWSGQYVGGAEARINTQWLLTSGTTEDNAGFSTLVGHDTFTKVKPSAAS | 64 | 716 | 12.2 | 9 | 564 | 0.35 | 280 | 518 | 12
11 | mutein m4001 (designed binder, Library 2 clone) EAGITGTWYNQLGSTFIVTAGADGALTGTYACGRGNAECRYVLTGRYDSAPATDGSGTALGWTVAWKNNYRNAHSATTWSGQYVGGAEARINTQWLLTSGTTEANAWKSTLVGHDTFTKVKPSAAS | 34 |  |  | 20 | 175 | 0.16 | 127 |  | 27
12 | mutein“1”-m36 (designed binder, Library 3 clone on mutein “1”) EAGITGTWYNQLGSTFIVTAGADGALTGTYVTARGNAESRYVLTGRYDSAPATDGSGTALGWTVAWKNNYRNAHSATTWSGQYVGGAEARINTQWLLTSGTTEYNAFMSTLVGHDTFTKVKPSAAS | 61 | 945 | 9.2 | 12 | 429 | 0.32 | 254 |  | 
